Test results reported in patent US20230365684A1 (Janssen / Centocor, published 2023).

B1: C33B1781 (llama vHH on mono-Fc backbone) (Fc fusion)
chain: EVQVVESGGGLVQGGGSLRLSCAASGSIFSINAMGWYHQAPGKQRELVARITGGGATDYVDSVKGRFTISLDSAKSTVYLQMNSLKPEDTAVYHCYADLVTRVGSDLLYDDYWGQGTQVTVSS
notes: not shown: mono-Fc backbone
B2: C33B1474 (antibody, V domains shown)
VH: QVQLVESGGGLVQPGGSLRLSCAASGFTFSSFGMSWVRQAPGKGLEWVANIKRDGSEKYYVDSVKGRFTISRDNAKNSLFLQMSSLRAEDTAVYYCVRDYGYFDFWGQGTLVTVSS
VL: DIQMTQSPSSLSASVGDRVTITCQASQAISNYLNWYQQKPGKAPKLLIYDASNLETGVPSRFSGSGSGTDFTFTISSLQPEDFSTYFCQHYDNLPYTFGQGTKLEIK
B3: C33B1784 (llama vHH on mono-Fc backbone) (Fc fusion)
chain: EVQLVESGGGLVQAGGSLRLSCAASGRTFSTYVMGWFRQAPGQERELVAAIVSGRNPTYADSVKSRFTISRDNAKNTIYLHMNSLQPEDTAVYYCHMYHYSSQYWGQGTQVTVSS
notes: not shown: mono-Fc backbone
B4: C33B1787 (llama vHH on mono-Fc backbone) (Fc fusion)
chain: EVQLVESGGGLVQAGGSLRLSCAASGFTFDDYAIGWFRQAPGKEREGVSCISSSDGSTYYVDSVKGRFTISSDNAKNTVYLQMNSLKPEDTAVYYCTALIIMYGSGSERAAAACRYKYEYWGQGTQVTVSS
notes: not shown: mono-Fc backbone
B5: C33B1788 (llama vHH on mono-Fc backbone) (Fc fusion)
chain: QVQLVESGGGLVQPGGSLRLSCAVFGFSLSDYAIGWFRQAPGKEREKVSCISESDGRTYLSDSVKSRFTISRDNGKNTVYLQMNNLKPDDTGVYYCATVDQAISESSYHCEKGFGSWGQGTQVTVSS
notes: not shown: mono-Fc backbone
B6: C33B1789 (llama vHH on mono-Fc backbone) (Fc fusion)
chain: QVQLVESGGGLVQAGGSLRLSCAVFGFSLSDYAIGWFRQAPGKEREKVSCISESDGRTYLSDSVKSRFTISRDNGKNTVYLQMNNLKPDDTGVYYCATVDQAISESSYHCEKGFGSWGQGTQVTVSS
notes: not shown: mono-Fc backbone
B7: C33B1601 (antibody, V domains shown)
VH: EVQLVESGGGLVRPGGSLKLSCAASGFTFSNYAMSWVRQTPEKRLEWVAGISNSGYSLYYPDTLKGRFTISRDNARNTLYLQMISLRSEDTAMYYCARDGGSYPYAMDYWGHGTSVTVSS
VL: DIVMTQSQKFMSTSVGDRVSVTCKASQNVGTYVAWYQQKPGHSPKALIYSASYRYSGVPDRFTGSGSGTDFTLTISNVQSEDLADYFCQQYKSYPLTFGAGTKLELK
B8: C33B1783 (llama vHH on mono-Fc backbone) (Fc fusion)
chain: EVQLVESGGGLVQAGGSLRLSCAASGFTFDDYAVGWFRQVPGKEREGVSCISSSDGATYYADSVKGRFTISSDNAKNTVYLQMNSLKPEDTAVYYCTAIIVRGSGWERAAAACRYEYSYWGQGTQVTVSS
notes: vHH is placed first; not shown: mono-Fc backbone
B9: C33B1782 (llama vHH on mono-Fc backbone) (Fc fusion)
chain: EVQLVESGGGLVQAGGSLRLSCAASGFTFDDYAVGWFRQAPGKEREGISCISSSDGATYYADSVKGRFTISTDNAKNTAFLQMNSLKPEDTAVYYCTAVIVRGTGWERAAAACRYEYAYWGQGTQVTVSS
notes: not shown: mono-Fc backbone
B10: C33B931 (antibody, V domains shown)
VH: not shown
VL: SYELTQPPSVSVSPGQTASITCSGDKLGSKFASWYQQKPGQSPVLVIYQDSKRPSGIPERFSGSNSGNTATLTISGTQAMDEADYYCQAWDSSTVVFGGGTKLTVL
B11: C33B919 (antibody, V domains shown)
VH: QVQLVESGGGVVQPGRSLRLSCAASGFTFSSYGMHWVRQAPGKGLEWVAVISYDGSNKYYADSVKGRFTISRDNSKNTLYLQMNSLRAEDTAVYYCAKDFRSFDWLPPDSTSYYGMDVWGQGTTVTVSS
VL: SYELTQPPSVSVSPGQTASITCSGDKLGDKYVSWYQQKPGQSPVVVIHQDRKRPSGIPERFSGSNFGNTATLTISGTQAMDEADYYCQAWDSSTVVFGGGTKLTVL
B12: C33B125 (antibody, V domains shown)
VH: QVQLVESGGGVVQPGRSLRLSCAASGFTFSSYGMHWVRQAPGKGLEWVAVISYDGSNKYYADSVKGRFTISRDNSKNTLYLQMNSLRAEDTAVYYCAKDFRSFDWLPPDSTSYYGMDVWGQGTTVTVSS
VL: SYELTQPPSVSVSPGQTASITCSGDKLGDKYVCWYQQKPGQSPVVVIHQDRKRPSGIPERFSGSNFGNTATLTISGTQAMDEADYYCQAWDSSTVVFGGGTKLTVL
B13: C33B933 (antibody, V domains shown)
VH: QVQLVESGGGVVQPGRSLRLSCAASGFTFSSYGMHWVRQSPGKGLEWVAVISYDGSNKYYADSVKGRFTISRDNSKSTLYLQMNSLRAEDTAVYYCAKDFRSLDWLPPDSTSYDGMDVWGQGTTVTVSS
VL: SYELTQPPSVSVSPGQTASITCSGHKLGDKYASWYQQKPGQSPVVVIYKDSKRPSGIPERFSGSNFGNTATLTISGTQAMDEADYYCQAWDSSTVVFGGGTKLTVL
B14: C33B937 (antibody, V domains shown)
VH: QVQLVESGGGVVQPGRSLRLSCVASGFTFSSYGMHWVRQAPGKGLEWVAVISYDGSNKYYADSVKGRFTISRDNSKNTLYLQMNSLRAEGTAVYYCAKDFRSFDWLPPDSASYHGMDVWGQGTTVTVSS
VL: SYELTQPPSVSVSPGQTASITCSGDKLGDKYASWYQQKPGQSPVLVIYQDGKRPSGIPERFSGSNFGNKATLTISGTQAMDEADYYCQAWDRNTVVFGGGTKLTVL
B15: C33B1607 (antibody, V domains shown)
VH: EVQLQQSGPELVKPGSSVKISCKASGYTFTDYNINWVKQSHGKNLEWIGTINPNNGVTFYNQRFKGQATLTVDKSSSTAYMELRSLTSEDSAVYYCSRDGYDTYYAMDYWGQGTTLTVSS
VL: DIVMTQSHKFMSTSVGDRVSITCKASQDVRTAEAWYQQKPGQSPKLLIYSASNRYTGVPDRFTGSGSGTDFTFTISSVQAEDLAVYYCQQYYTTPRTFGGGTKLEIK
B16: C33B1476 (antibody, V domains shown)
VH: EVQLVESGGGLVQPGGSLKVSCEASGFTFSVSAIHWVRQASGKGLEWIGRIRSKGNSYATAYNVSVKGRFTISRDDSKNTAYLQMDSLKTEDTAVYYCTRHNDKWNYYGLDVWGQGTTVTVSS
VL: DIVMTQSPLSLPVTPGEPASISCKSSQSLLFSNGYKFLDWYLQRPGQSPQLLIYLGSYRASGVPDRFSGSGSGTDFTLKISRVEAEDVGLYYCMQALQTPPTFGGGTKVEIK
notes: also called sCD33B1476
B17: C33B1517 (antibody, V domains shown)
VH: QVQLQESGPGLVKPSETLSLTCSVSGASIRNYYWSWIRQTAGKGLEWLGHIYSTGNIHYNPSLKSRVTMSVDTSNNQFSLKLRSVTAADTAVYYCARDNGAALFDYWGQGTLVTVSS
VL: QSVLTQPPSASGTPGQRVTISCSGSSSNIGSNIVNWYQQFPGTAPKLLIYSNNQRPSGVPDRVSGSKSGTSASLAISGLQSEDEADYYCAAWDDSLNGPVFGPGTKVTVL
B18: C33B1786 (llama vHH on mono-Fc backbone) (Fc fusion)
chain: EVQVVESGGGVVQSGGSLTLSCEASESILSFSTMDWFRQAPGKEREGVSCIRPRYSTTTHADSIKGRFKMYSDNAKNTIYLHMNSLQPEDTAVYYCHMYHYSSQYWGQGTQVTVSS
notes: not shown: mono-Fc backbone

Columns and labels:
[1] = target: T1, human CD33 (full length ECD), recombinant (human, UniProt P20138 18-259); assay: SPR (Biacore 8K), vHH-mono-Fc captured by anti-human Fc, antigen in solution
T1 construct: extracellular domain; Tag or HSA fusion partner unknown; also called hu CD33 (FL ECD); hCD33-FL ECD
Protocol: (§1) The binding affinity of anti-CD33 antibodies and Llama vHHs to the recombinant human CD33 (FL ECD or IgC2 domain) was determined by surface plasmon resonance (SPR) using Biacore 8K instrument. […] The association and dissociation were monitored for 2 and 30 minutes, respectively, using a flow rate of 50 μL/min. Raw binding data was referenced by subtracting the analyte binding signals from blanks and analyzed using a 1:1 Langmuir binding model using the Biacore software to obtain the kinetics which were used to calculate the binding affinity.
(§2) The anti-CD33 Llama vHHs on a mono-Fc backbone were captured using an anti-human Fc antibody and the antigens were injected in solution.

[2] = target: T2, human CD33 IgC2 domain, recombinant (human, UniProt P20138 136-259); assay: as above
T2 construct: domain: IgC2; also called hu CD33 (IgC2); hCD33-IgC2
Protocol: as §1, §2

[3] = target: T1, human CD33 (full length ECD), …; assay: SPR (Biacore 8K), antibody captured by anti-human Fc, antigen in solution
Protocol: (§3) Affinities (KD) for the interaction of anti-CD33 antibodies human CD33 (full length ECD and IgC2 domain) were obtained by SPR. The anti-CD33 antibodies were captured using an anti-human Fc antibody and the antigens were injected in solution.
as §1

[4] = target: T2, human CD33 IgC2 domain, recombinant; assay: as above
Protocol: as §3, §1

[5] = target: T3, human CD33 on cells (MOLM-13, Kasumi-1, OCI-AML-3, Kasumi-3) (human, UniProt P20138 18-364); assay: flow cytometry on MOLM-13 cells, 4 °C, serial dilutions of the antibody
T3 construct: whole, on cells; also called CD33 expressing cells; CD33+ cell lines
Protocol: (§4) Cells were harvested, washed once with PBS and then stained with the fixable viability dye at room temperature for 30 min. Following incubation, cells were washed twice with FACS buffer (PBS+2% FBS). Cells were then used for binding assay with test antibodies. 100,000 cells were stained with the test antibodies in a 100 ul staining volume. Antibodies for staining were diluted in FACS buffer and incubated with the cells for 40 mins on ice, followed by washing 2X with FACS buffer. Test antibodies were then detected using the PE conjugated Goat F(ab′)2 Anti-Human IgG-Fc (ab98596; Abcam) for 40 minutes on ice. Following washing, data was acquired on the Novocyte flow cytometer (ACEA). Cells were gated on FSC/SSC, followed by live cell gating and doublet discrimination. Data was analyzed using Flow Jo (BD).
(§5) Median fluorescence intensity values were used to plot a 4-parameter non-linear regression analysis curve after subtracting the MFI of the secondary only sample.
(§6) The binding EC₅₀ values of CD33 antibodies to high (MOLM-13), medium (Kasumi-1) and low (OCI-AML-3) cell lines were assayed. Binding was carried out at 4° C. with serial dilutions of the antibody.

[6] = target: T3, human CD33 on cells (MOLM-13, Kasumi-1, …); assay: flow cytometry on OCI-AML-3 cells, 4 °C, serial dilutions of the antibody
Protocol: as §4, §5, §6

T1 sequence (P20138 18-259): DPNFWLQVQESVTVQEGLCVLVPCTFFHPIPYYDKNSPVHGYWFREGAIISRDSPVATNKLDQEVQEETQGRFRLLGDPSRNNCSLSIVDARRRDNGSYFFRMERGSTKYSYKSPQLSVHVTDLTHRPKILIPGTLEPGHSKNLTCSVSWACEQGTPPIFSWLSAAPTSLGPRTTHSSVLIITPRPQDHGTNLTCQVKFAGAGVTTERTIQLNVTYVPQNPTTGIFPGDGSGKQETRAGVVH
T2 sequence (P20138 136-259 limits assumed): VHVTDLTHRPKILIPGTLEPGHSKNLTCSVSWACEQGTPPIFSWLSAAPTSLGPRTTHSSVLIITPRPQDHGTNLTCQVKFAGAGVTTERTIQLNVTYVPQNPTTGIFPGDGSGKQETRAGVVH
T3 sequence (P20138 18-364): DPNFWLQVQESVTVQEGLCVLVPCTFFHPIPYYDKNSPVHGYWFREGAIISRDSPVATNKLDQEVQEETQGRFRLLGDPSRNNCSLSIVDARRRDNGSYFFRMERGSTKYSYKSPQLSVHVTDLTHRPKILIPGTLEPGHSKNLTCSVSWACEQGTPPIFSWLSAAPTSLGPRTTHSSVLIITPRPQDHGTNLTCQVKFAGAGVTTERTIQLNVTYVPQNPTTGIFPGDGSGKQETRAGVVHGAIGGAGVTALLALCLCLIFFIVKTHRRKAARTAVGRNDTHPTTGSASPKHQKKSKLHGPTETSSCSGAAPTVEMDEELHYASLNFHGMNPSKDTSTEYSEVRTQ

Binder | Kd [1] [nM] | Kd [3] [nM] | also measured
B1 | 2.21 |  | Kd [2]: 0.0559 nM
B2 |  | 2.47 | Kd [4]: 3.99 nM; EC50 [5]: 78.4 nM; EC50 [6]: 1.26 nM
B3 |  |  | binding result [1]: binds
B4 | 0.792 |  | 
B5 | 0.707 |  | Kd [2]: 4.34 nM
B6 | 0.67 |  | Kd [2]: 3.03 nM
B7 |  | 1.1 | Kd [4]: 6.8 nM
B8 | 0.0859 |  | 
B9 | 0.206 |  | 
B10 |  | 0.4 | 
B11 |  | 0.5 | binding result [4]: no binding (tested: 40 nM-1.6 nM CD33 antigen)
B12 |  | 0.1 | Kd [4]: > 10 nM
B13 |  | 0.5 | 
B14 |  | 0.3 | Kd [4]: 56 nM
B15 |  | 1.49 | binding result [4]: no binding (tested: 40 nM-1.6 nM CD33 antigen)
B16 |  |  | EC50 [6]: 0.8 nM
B17 |  | 4.44 | binding result [4]: no binding (tested: 40 nM-1.6 nM CD33 antigen); EC50 [5]: 10.6 nM; EC50 [6]: 1.4 nM
B18 | 0.357 |  | 
